Data as given in publication doi:10.1101/2023.08.10.552762.

Tests used:
[1] = biological target: Escherichia coli SduA (Shedu system, E. coli KTE10) (Escherichia coli KTE10); test: SEC-MALS
[2] = biological target: T1, EcSduA (Shedu SduA) (Escherichia coli, UniProt PDB:8PS5_1 1-411); test: fluorescence polarization
T1 sequence: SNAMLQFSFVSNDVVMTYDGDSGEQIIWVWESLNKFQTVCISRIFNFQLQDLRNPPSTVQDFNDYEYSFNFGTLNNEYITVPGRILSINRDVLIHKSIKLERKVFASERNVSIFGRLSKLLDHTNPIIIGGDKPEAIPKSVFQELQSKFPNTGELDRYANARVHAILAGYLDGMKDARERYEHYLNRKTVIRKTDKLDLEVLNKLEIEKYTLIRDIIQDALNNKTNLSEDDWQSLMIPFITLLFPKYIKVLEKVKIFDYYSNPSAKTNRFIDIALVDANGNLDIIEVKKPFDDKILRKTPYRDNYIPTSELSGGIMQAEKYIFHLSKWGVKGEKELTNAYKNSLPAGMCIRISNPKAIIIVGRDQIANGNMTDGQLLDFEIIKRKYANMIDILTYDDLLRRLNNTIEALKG

[3] = biological target: T1, EcSduA (Shedu SduA); test: cryo-EM structure

“Escherichia coli SduA (Shedu system, E. coli KTE10) (enzyme)” gave a stoichiometry N [1] of 4.

B1: 40 bp dsDNA oLL321/oLL322 (dsDNA)
DNA 1: GATACCAGCTCTATGTTGACCTCTCAGATCGGCACTACTT
DNA 2: AAGTAGTGCCGATCTGAGAGGTCAACATAGAGCTGGTATC
Molecule B1 has a Kd [2] of 11.9 ± 0.4 nM.

B2: 40 bp palindromic dsDNA oLL314 (dsDNA)
DNA 1: CTAGTGCATCTGAATCGTCATGACGATTCAGATGCACTAG
DNA 2: CTAGTGCATCTGAATCGTCATGACGATTCAGATGCACTAG
B2: binds [3].
